Data reported in article PMC9351184, “Survey of the binding preferences of RNA-binding proteins to RNA editing events”.

Target: ILF3 dsRBD;hnRNPC dsRBD (Homo sapiens;Homo sapiens, UniProt Q12906;P07910 398-590;16-57, |)
Experiment: EMSA; both proteins pooled; simultaneous binding; 1 uM labelled RNA, 3 uM protein, 10 ul, on ice 45 min; 6% PAGE in 0.5x TBE (gel pre-run at 4 C); binding buffer, salt and pH not stated (proteins dialyzed in 25 mM Tris-HCl pH 8.0, 150 mM NaCl; final elution from cation exchange/heparin up to 1 M NaCl, then SEC)
Conditions: protein: recombinant;recombinant, tags: N-terminal GST (pGood6p), removed with TEV;10xHis (pSUMOH10), label: 5' DY781

B1: edited RNA (ssRNA)
RNA: AGUGGCUUAUGCCUGUGAUCCCAACAC
modifications: A-to-I editing site represented by G as printed (A/G); inosine not stated
binding result: binds
